According to patent US20220002701A1 (CHILDREN S MEDICAL CENTER, published 2022):
Where two headings read alike, the source gives them in different places.

Columns and labels:
[1] = target: T1, stabilized soluble SARS-CoV-2 S ectodomain trimer in the pre-fusion conformation (SARS-CoV-2; bacteriophage T4, UniProt P0DTC2 14-1208; P10104 458-484)
T1 construct: also called soluble S trimer; S trimer

[2] = target: T1, stabilized soluble SARS-CoV-2 S …; remark: listed apart in the source

B1: ACE2615-foldon-K353Y (receptor)
chain: QSTIEEQAKTFLDKFNHEAEDLFYQSSLASWNYNTNITEENVQNMNNAGDKWSAFLKEQSTLAQMYPLQEIQNLTVKLQLQALQQNGSSVLSEDKSKRLNTILNTMSTIYSTGKVCNPDNPQECLLLEPGLNEIMANSLDYNERLWAWESWRSEVGKQLRPLYEEYVVLKNEMARANHYEDYGDYWRGDYEVNGVDGYDYSRGQLIEDVEHTFEEIKPLYEHLHAYVRAKLMNAYPSYISPIGCLPAHLLGDMWGRFWTNLYSLTVPFGQKPNIDVTDAMVDQAWDAQRIFKEAEKFFVSVGLPNMTQGFWENSMLTDPGNVQKAVCHPTAWDLGYGDFRILMCTKVTMDDFLTAHHEMGHIQYDMAYAAQPFLLRNGANEGFHEAVGEIMSLSAATPKHLKSIGLLSPDFQEDNETEINFLLKQALTIVGTLPFTYMLEKWRWMVFKGEIPKDQWMKKWWEMKREIVGVVEPVPHDETYCDPASLFHVSNDYSFIRYYTRTLYQFQFQEALCQAAKHEGPLHKCDISNSTEAGQKLFNMLRLGKSEPWTLALENVVGAKNMNVRPLLNYFEPLFTWLKDQNKNSFVGWSTDWSPYADSGGGGSGGYIPEAPRDGQAYVRKDGEWVLLSTFLGGSHHHHHH
notes: also called Sol-ACE2-Foldon-K353Y
Kd [1]: 32.3 nM
ka2 [1]: 0.397
kdis2 [1]: 0.00545
koff [1]: 0.00322 s⁻¹
kon [1]: 99600 M⁻¹ s⁻¹
Kd [2]: 32.3 nM
